Results: publication PMC2865183 (Nature chemical biology, 2009)

Target: the molecule itself
Experiment: SEC

B1: VVD-36 M135I:M165I (domain or fragment, UniProt Q9C3Y6 37-186, looked up)
chain: HTLYAPGGYDIMGYLIQIMNRPNPQVELGPVDTSCALILCDLKQKDTPIVYASEAFLYMTGYSNAEVLGRNCRFLQSPDGMVKPKSTRKYVDSNTINTIRKAIDRNAEVQVEVVNFKKNGQRFVNFLTIIPVRDETGEYRYSMGFQCETE
In the case of B1, the “fold increase in dimer affinity (against VVD-36)” value is reported as over 5 fold.
